Target: T1, Human PD-L1 (human, UniProt Q9NZQ7 19-290)
T1 construct: whole, on cells; also called target-A
Experiment: flow cytometry on CHO-K1 cells expressing human PD-L1
Method: Human PD-L1-expressing cells W315-CHOK1.hPro1.C11 (×10^5 cells/well) and 4-1BB-expressing cells WBP342-CHO-K1.hPro1.C1 were incubated with various concentrations of testing antibodies at 4° C. for 1 hour. […] The cells were then washed and resuspended in DPBS with 1% BSA. MFI of the cells was measured by a flow cytometer and analyzed by FlowJo.
As shown in FIG. 7 and Table 7, compared to the reference molecule, the T8311 variants kept the target binding ability very well.

T1 sequence (Q9NZQ7 19-290): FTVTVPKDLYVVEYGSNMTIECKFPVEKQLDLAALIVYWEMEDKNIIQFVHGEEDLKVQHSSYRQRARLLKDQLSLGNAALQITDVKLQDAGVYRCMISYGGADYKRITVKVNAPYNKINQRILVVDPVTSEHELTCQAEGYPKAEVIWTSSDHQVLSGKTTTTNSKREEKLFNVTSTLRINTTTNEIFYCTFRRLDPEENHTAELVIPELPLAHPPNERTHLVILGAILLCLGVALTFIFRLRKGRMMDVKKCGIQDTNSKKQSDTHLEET

Binder | EC50 [pM] | Top (MFI)
T8311-U14T2.G25R-1.uIgG1 (bispecific antibody, Symmetric 2+2 format G25R, human IgG1 Fc; PD-L1 x 4-1BB; also called T8311-1) heavy: not shown light 1: SYELTQPPSVSVSPGQTASITCSGSELPKRYAYWYQQKPGQSIVRVIYKDSERPSGISERFSGSSSGNTATLTISGTQAMDEADYYCSSTYGDRKLPIFGGGTKLTVLGQPKAAPSVTLFPPSSEELQANKATLVCLISDFYPGAVTVAWKADSSPVKAGVETTTPSKQSNNKYAASSYLSLTPEQWKSHKSYSCQVTHEGSTVEKTVAPTECS light 2: SYVLTQPPSVSVAPGQTARMTCGGDNIGIKIVHWYQQKAGQAPVLVVYDDNDRPSGIPDRFSGSNSGNTATLTISRVAAGDEADYYCQVWDRRSDHVVFGGGTKLTVLPDIQNPDPAVYQLRDSKSSDKSVCLFTDFDSQTQVSQSKDSDVYITDKCVLDMRSMDFKSNSAVAWSQKSDFACANAFQNSIIPEDTFFPSPESS | 184 | 8330
T8311-U14T2.G25R-47.uIgG1 (bispecific antibody, also called T8311-47) heavy: not shown light 1: SYELTQPPSVSVSPGQTASITCSGSELPKRYAYWYQQKPGQSIVRVIYKDSERPSGISERFSGSSSGNTATLTISGTQAMDEADYYCSSTYGDRKLPIFGGGTKLTVLGQPKAAPSVTLFPPSSEELQANKATLVCLISDFYPGAVTVAWKADSSPVKAGVETTTPSKQSNNKYAASSYLSLTPEQWKSHKSYSCQVTHEGSTVEKTVAPTECS light 2: SYVLTQPPSVSVAPGQTARMTCGGDNIGIKIVHWYQQKAGQAPVLVVYDDNDRPSGIPDRFSGSNSGNTATLTISRVAAGDEADYYCQVWDRRSDHVVFGGGTKLTVLPDIQNPDPAVYQLRDSKSSDKSVCLFTDFDSQTQVCQSKDSDVYITDKCVLDMRSMDFKSNSAVAWSQKSDFACANAFQCSIIPEDTFFPS | 186 | 8110
T8311-U14T2.G25R-52.uIgG1 (bispecific antibody, also called T8311-52) heavy: not shown light 1: SYELTQPPSVSVSPGQTASITCSGSELPKRYAYWYQQKPGQSIVRVIYKDSERPSGISERFSGSSSGNTATLTISGTQAMDEADYYCSSTYGDRKLPIFGGGTKLTVLGQPKAAPSVTLFPPSSEELQANKATLVCLISDFYPGAVTVAWKADSSPVKAGVETTTPSKQSNNKYAASSYLSLTPEQWKSHKSYSCQVTHEGSTVEKTVAPTECS light 2: SYVLTQPPSVSVAPGQTARMTCGGDNIGIKIVHWYQQKAGQAPVLVVYDDNDRPSGIPDRFSGSNSGNTATLTISRVAAGDEADYYCQVWDRRSDHVVFGGGTKLTVLPDIQNPDPAVYQLRDSKSSDKSVCLFTDFDSQTQVCQSKDSDVYITDKCVLDMRSMDFKSNSAVAWSQKSDFACANAFQNCIIPEDTFFPS | 187 | 8060
T8311-U14T2.G25R-49.uIgG1 (bispecific antibody, also called T8311-49) heavy: not shown light 1: SYELTQPPSVSVSPGQTASITCSGSELPKRYAYWYQQKPGQSIVRVIYKDSERPSGISERFSGSSSGNTATLTISGTQAMDEADYYCSSTYGDRKLPIFGGGTKLTVLGQPKAAPSVTLFPPSSEELQANKATLVCLISDFYPGAVTVAWKADSSPVKAGVETTTPSKQSNNKYAASSYLSLTPEQWKSHKSYSCQVTHEGSTVEKTVAPTECS light 2: SYVLTQPPSVSVAPGQTARMTCGGDNIGIKIVHWYQQKAGQAPVLVVYDDNDRPSGIPDRFSGSNSGNTATLTISRVAAGDEADYYCQVWDRRSDHVVFGGGTKLTVLPDIQNPDPAVYQLRDSKSSDKSVCLFTDFDSQTQVSQSCDSDVYITDKCVLDMRSMDFKSNSAVAWSQKSDFACANAFQCSIIPEDTFFPS | 153 | 8130
T8311-U14T2.G25R-53.uIgG1 (bispecific antibody, also called T8311-53) heavy: not shown light 1: SYELTQPPSVSVSPGQTASITCSGSELPKRYAYWYQQKPGQSIVRVIYKDSERPSGISERFSGSSSGNTATLTISGTQAMDEADYYCSSTYGDRKLPIFGGGTKLTVLGQPKAAPSVTLFPPSSEELQANKATLVCLISDFYPGAVTVAWKADSSPVKAGVETTTPSKQSNNKYAASSYLSLTPEQWKSHKSYSCQVTHEGSTVEKTVAPTECS light 2: SYVLTQPPSVSVAPGQTARMTCGGDNIGIKIVHWYQQKAGQAPVLVVYDDNDRPSGIPDRFSGSNSGNTATLTISRVAAGDEADYYCQVWDRRSDHVVFGGGTKLTVLPDIQNPDPAVYQLRDSKSSDKSVCLFTDFDSQTCVSQSKDSDVYITDKCVLDMRSMDFKSNSAVAWSQKSDFACANAFQNSCIPEDTFFPS | 220 | 8150
T8311-U14T2.G25R-57.uIgG1 (bispecific antibody, also called T8311-57; design 57) heavy: not shown light 1: SYELTQPPSVSVSPGQTASITCSGSELPKRYAYWYQQKPGQSIVRVIYKDSERPSGISERFSGSSSGNTATLTISGTQAMDEADYYCSSTYGDRKLPIFGGGTKLTVLGQPKAAPSVTLFPPSSEELQANKATLVCLISDFYPGAVTVAWKADSSPVKAGVETTTPSKQSNNKYAASSYLSLTPEQWKSHKSYSCQVTHEGSTVEKTVAPTECS light 2: SYVLTQPPSVSVAPGQTARMTCGGDNIGIKIVHWYQQKAGQAPVLVVYDDNDRPSGIPDRFSGSNSGNTATLTISRVAAGDEADYYCQVWDRRSDHVVFGGGTKLTVLPDIQNPDCAVYQLRDSKSSDKSVCLFTDFDSQTQVSQSKDSDVYITDKCVLDMRSMDFKSNSAVAWSQKSDFACANAFQNSIIPECTFFPS | 177 | 8150
T8311-U14T2.G25R-61.uIgG1 (bispecific antibody, also called T8311-61; Design-61) heavy: not shown light 1: SYELTQPPSVSVSPGQTASITCSGSELPKRYAYWYQQKPGQSIVRVIYKDSERPSGISERFSGSSSGNTATLTISGTQAMDEADYYCSSTYGDRKLPIFGGGTKLTVLGQPKAAPSVTLFPPSSEELQANKATLVCLISDFYPGAVTVAWKADSSPVKAGVETTTPSKQSNNKYAASSYLSLTPEQWKSHKSYSCQVTHEGSTVEKTVAPTECS light 2: SYVLTQPPSVSVAPGQTARMTCGGDNIGIKIVHWYQQKAGQAPVLVVYDDNDRPSGIPDRFSGSNSGNTATLTISRVAAGDEADYYCQVWDRRSDHVVFGGGTKLTVLPDIQNPDPAVYQLRDSKSSDKSVCLFTDFDSQTQVSQSKDSDVYITDKCVLDMRSMDFKSNSAVAWSQKSDFACANAFQNSIIPEDTFFCS | 179 | 7880
T8311-U14T2.G25R-50.uIgG1 (bispecific antibody, also called T8311-50) heavy: not shown light 1: SYELTQPPSVSVSPGQTASITCSGSELPKRYAYWYQQKPGQSIVRVIYKDSERPSGISERFSGSSSGNTATLTISGTQAMDEADYYCSSTYGDRKLPIFGGGTKLTVLGQPKAAPSVTLFPPSSEELQANKATLVCLISDFYPGAVTVAWKADSSPVKAGVETTTPSKQSNNKYAASSYLSLTPEQWKSHKSYSCQVTHEGSTVEKTVAPTECS light 2: SYVLTQPPSVSVAPGQTARMTCGGDNIGIKIVHWYQQKAGQAPVLVVYDDNDRPSGIPDRFSGSNSGNTATLTISRVAAGDEADYYCQVWDRRSDHVVFGGGTKLTVLPDIQNPDPAVYQLRDSKSSDKSVCLFTDFDSQTCVSQSKDSDVYITDKCVLDMRSMDFKSNSAVAWSQKSDFACANAFQNCIIPEDTFFPS | 256 | 8130
T8311-U14T2.G25R-58.uIgG1 (bispecific antibody, also called T8311-58) heavy: not shown light 1: SYELTQPPSVSVSPGQTASITCSGSELPKRYAYWYQQKPGQSIVRVIYKDSERPSGISERFSGSSSGNTATLTISGTQAMDEADYYCSSTYGDRKLPIFGGGTKLTVLGQPKAAPSVTLFPPSSEELQANKATLVCLISDFYPGAVTVAWKADSSPVKAGVETTTPSKQSNNKYAASSYLSLTPEQWKSHKSYSCQVTHEGSTVEKTVAPTECS light 2: SYVLTQPPSVSVAPGQTARMTCGGDNIGIKIVHWYQQKAGQAPVLVVYDDNDRPSGIPDRFSGSNSGNTATLTISRVAAGDEADYYCQVWDRRSDHVVFGGGTKLTVLPDIQNPDCAVYQLRDSKSSDKSVCLFTDFDSQTQVSQSKDSDVYITDKCVLDMRSMDFKSNSAVAWSQKSDFACANAFQNSIIPEDCFFPS | 190 | 7990
T8311-U14T2.G25R-56.uIgG1 (bispecific antibody, also called T8311-56) heavy: not shown light 1: SYELTQPPSVSVSPGQTASITCSGSELPKRYAYWYQQKPGQSIVRVIYKDSERPSGISERFSGSSSGNTATLTISGTQAMDEADYYCSSTYGDRKLPIFGGGTKLTVLGQPKAAPSVTLFPPSSEELQANKATLVCLISDFYPGAVTVAWKADSSPVKAGVETTTPSKQSNNKYAASSYLSLTPEQWKSHKSYSCQVTHEGSTVEKTVAPTECS light 2: SYVLTQPPSVSVAPGQTARMTCGGDNIGIKIVHWYQQKAGQAPVLVVYDDNDRPSGIPDRFSGSNSGNTATLTISRVAAGDEADYYCQVWDRRSDHVVFGGGTKLTVLPDIQNPDPAVYQLRDSKSSDKSVCLFTDFDSQCQVSQSKDSDVYITDKCVLDMRSMDFKSNSAVAWSQKSDFACANAFQNSIICEDTFFPS | 192 | 8240
T8311-U14T2.G25R-51.uIgG1 (bispecific antibody, also called T8311-51) heavy: not shown light 1: SYELTQPPSVSVSPGQTASITCSGSELPKRYAYWYQQKPGQSIVRVIYKDSERPSGISERFSGSSSGNTATLTISGTQAMDEADYYCSSTYGDRKLPIFGGGTKLTVLGQPKAAPSVTLFPPSSEELQANKATLVCLISDFYPGAVTVAWKADSSPVKAGVETTTPSKQSNNKYAASSYLSLTPEQWKSHKSYSCQVTHEGSTVEKTVAPTECS light 2: SYVLTQPPSVSVAPGQTARMTCGGDNIGIKIVHWYQQKAGQAPVLVVYDDNDRPSGIPDRFSGSNSGNTATLTISRVAAGDEADYYCQVWDRRSDHVVFGGGTKLTVLPDIQNPDPAVYQLRDSKSSDKSVCLFTDFDSQTQCSQSKDSDVYITDKCVLDMRSMDFKSNSAVAWSQKSDFACANAFQNCIIPEDTFFPS | 213 | 8120
T8311-U14T2.G25R-48.uIgG1 (bispecific antibody, also called T8311-48) heavy: not shown light 1: SYELTQPPSVSVSPGQTASITCSGSELPKRYAYWYQQKPGQSIVRVIYKDSERPSGISERFSGSSSGNTATLTISGTQAMDEADYYCSSTYGDRKLPIFGGGTKLTVLGQPKAAPSVTLFPPSSEELQANKATLVCLISDFYPGAVTVAWKADSSPVKAGVETTTPSKQSNNKYAASSYLSLTPEQWKSHKSYSCQVTHEGSTVEKTVAPTECS light 2: SYVLTQPPSVSVAPGQTARMTCGGDNIGIKIVHWYQQKAGQAPVLVVYDDNDRPSGIPDRFSGSNSGNTATLTISRVAAGDEADYYCQVWDRRSDHVVFGGGTKLTVLPDIQNPDPAVYQLRDSKSSDKSVCLFTDFDSQTQVSQCKDSDVYITDKCVLDMRSMDFKSNSAVAWSQKSDFACANAFQCSIIPEDTFFPS | 205 | 8120
T8311-U14T2.G25R-59.uIgG1 (bispecific antibody, also called T8311-59) heavy: not shown light 1: SYELTQPPSVSVSPGQTASITCSGSELPKRYAYWYQQKPGQSIVRVIYKDSERPSGISERFSGSSSGNTATLTISGTQAMDEADYYCSSTYGDRKLPIFGGGTKLTVLGQPKAAPSVTLFPPSSEELQANKATLVCLISDFYPGAVTVAWKADSSPVKAGVETTTPSKQSNNKYAASSYLSLTPEQWKSHKSYSCQVTHEGSTVEKTVAPTECS light 2: SYVLTQPPSVSVAPGQTARMTCGGDNIGIKIVHWYQQKAGQAPVLVVYDDNDRPSGIPDRFSGSNSGNTATLTISRVAAGDEADYYCQVWDRRSDHVVFGGGTKLTVLPDIQNPDPCVYQLRDSKSSDKSVCLFTDFDSQTQVSQSKDSDVYITDKCVLDMRSMDFKSNSAVAWSQKSDFACANAFQNSIIPEDTCFPS | 215 | 7860
